{"source": "paper doi:10.1101/2020.10.08.332312", "about": "(bioRxiv, 2020)", "binders": {"B1": {"name": "Ypt1-7xHis (yeast Rab1/Ypt1 with the two C-terminal cysteines replaced by an affinity tag) (natural protein)", "chain": "not shown"}}, "target": "T1, Trs31 (subunit of the recombinant TRAPPIII complex) (S. cerevisiae, UniProt Q03337 1-283)", "T1 sequence": "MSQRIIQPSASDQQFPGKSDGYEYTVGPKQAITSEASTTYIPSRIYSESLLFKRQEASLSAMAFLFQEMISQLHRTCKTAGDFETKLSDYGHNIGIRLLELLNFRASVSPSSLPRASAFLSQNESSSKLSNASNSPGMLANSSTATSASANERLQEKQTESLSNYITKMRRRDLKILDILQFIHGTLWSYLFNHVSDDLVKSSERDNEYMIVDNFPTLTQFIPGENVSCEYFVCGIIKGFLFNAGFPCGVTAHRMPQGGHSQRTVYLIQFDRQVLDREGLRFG", "assay": "cryo-EM structure"}
{"binder": "B1", "values": [{"measurement": "binding result", "value": "binds"}]}
